Source: patent publication US6774222, “Molecular computing elements, gates and flip-flops” (The United States of America as represented by the …)

B1: overlap 7 Fis sites (dsDNA)
DNA 1: AGGCTTTTGCTCAAAGTTTAAACTTTGAGCAAAAGCCT
DNA 2: B1 DNA 1
B2: overlap 11 Fis sites (dsDNA)
DNA 1: TATTCTTTGCTCAAAATTTGATCAAATTTTGAGCAAAGAATA
DNA 2: B2 DNA 1
B3: separated 23 Fis sites (dsDNA)
DNA 1: GGAATTCTTTGCTCAAAATTTGATCAGGATCCTGATCAAATTTTGAGCAAAGAATTCC
DNA 2: B3 DNA 1

Columns and labels:
[1] = target: T1, Fis (Factor for Inversion Stimulation) (Escherichia coli, UniProt P0A6R3 P0A6R3:1-98); assay: EMSA; single shift only, no doubly shifted band up to 2200 nM Fis with 1 nM DNA; sites bound mutually exclusively; settings: chain copies: 2 (dimer, stated); label: 5' biotin; self-complementary linear duplex
Description: (§1) FIG. 9 illustrates the mobility shift experiments for 11 and 7 base pair overlapping and 23 base pair separated Fis sites. Each lane contains increasing concentrations of Fis protein, beginning with no Fis, Fis diluted 1 to 64, etc. The 1:1 dilution is at 2200 nM Fis. This concentration was chosen intentionally so that with 1 nM DNA per reaction, the protein/DNA ratio is 2-fold higher than that needed to strongly shift DNA containing the 8.9 bit wild-type hin distal Fis site (Bruist et al. (1987) *Genes Dev.* 1: 762–772). Marker lanes (M) contain 10 ng of biotinylated […] hinfI digested DNA standards (Life Technologies, Inc.). Sizes are indicated in bp. The lowest band in most lanes of the figure is single-stranded oligonucleotide DNA. In the "Separated 23" experiment, at high concentrations, Fis proteins are apparently able to capture the single-stranded DNA when it has folded into a hairpin. This produces a faint band near the 100 bp marker.

[2] = target: T1, Fis (Factor for Inversion Stimulation); assay: EMSA; double shift; both sites bound simultaneously; up to 2200 nM Fis, 1 nM DNA; settings: chain copies: 2 (dimer, stated); label: 5' biotin; self-complementary linear duplex
Description: as §1

T1 sequence (P0A6R3 whole entry, one chain of several): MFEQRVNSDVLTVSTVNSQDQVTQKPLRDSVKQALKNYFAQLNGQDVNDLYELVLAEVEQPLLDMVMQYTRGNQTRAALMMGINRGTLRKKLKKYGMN

Binder | binding result [1] | binding result [2]
B1 | binds | 
B2 | binds | 
B3 |  | binds
